Data on one substance can be found in PMC9054685 (RSC Advances, 2020).

A short description of this data set: Particle size by dynamic light scattering. The data set is classed as physicochemical. To be noted: Zetasizer Nano ZS, 25 °C.

With “dendritic polylysine-1,4,7-triazacyclononane-1,4,7-triacetic acid conjugate [NOTA-DGL]”, the “diameter (particle size, DLS)” value turned out to be 35.02 ± 1.53 nm.
